Test results reported in patent US20260108614A1, “IMMOBILIZED ENDOGLYCOSIDASE FUSION PROTEIN AND USE THEREOF” (GENEQUANTUM HEALTHCARE (SUZHOU) CO., LTD., priority 2022, published 2026).

Assay: Isoelectric point
Assay type: physicochemical
Conditions: method not stated

B1: Halo-Endo S2-His: endoglycosidase fusion protein: Halo tag, Endo S2 and His tag, SEQ ID NO: 1 (protein)
chain: MAEIGTGFPFDPHYVEVLGERMHYVDVGPRDGTPVLFLHGNPTSSYVWRNIIPHVAPTHRCIAPDLIGMGKSDKPDLGYFFDDHVRFMDAFIEALGLEEVVLVIHDWGSALGFHWAKRNPERVKGIAFMEFIRPIPTWDEWPEFARETFQAFRTTDVGRKLIIDQNVFIEGTLPMGVVRPLTEVEMDHYREPFLNPVDREPLWRFPNELPIAGEPANIVALVEEYMDWLHQSPVPKLLFWGTPGVLIPPAEAARLAKSLPNCKAVDIGPGLNLLQEDNPDLIGSEIARWLSTLEISGGGGGSGGGGSMDKHLLVKRTLGCVCAATLMGAALATHHDSLNTVKAEEKTVQTGKTDQQVGAKLVQEIREGKRGPLYAGYFRTWHDRASTGIDGKQQHPENTMAEVPKEVDILFVFHDHTASDSPFWSELKDSYVHKLHQQGTALVQTIGVNELNGRTGLSKDYPDTPEGNKALAAAIVKAFVTDRGVDGLDIDIEHEFTNKRTPEEDARALNVFKEIAQLIGKNGSDKSKLLIMDTTLSVENNPIFKGIAEDLDYLLRQYYGSQGGEAEVDTINSDWNQYQNYIDASQFMIGFSFFEESASKGNLWFDVNEYDPNNPEKGKDIEGTRAKKYAEWQPSTGGLKAGIFSYAIDRDGVAHVPSTYKNRTSTNLQRHEVDNISHTDYTVSRKLKTLMTEDKRYDVIDQKDIPDPALREQIIQQVGQYKGDLERYNKTLVLTGDKIQNLKGLEKLSKLQKLELRQLSNVKEITPELLPESMKKDAELVMVGMTGLEKLNLSGLNRQTLDGIDVNSITHLTSFDISHNSLDLSEKSEDRKLLMTLMEQVSNHQKITVKNTAFENQKPKGYYPQTYDTKEGHYDVDNAEHDILTDFVFGTVTKRNTFIGDEEAFAIYKEGAVDGRQYVSKDYTYEAFRKDYKGYKVHLTASNLGETVTSKVTATTDETYLVDVSDGEKVVHHMKLNIGSGAIMMENLAKGAKVIGTSGDFEQAKKIFDGEKSDRFFTWGQTNWIAFDLGEINLAKEWRLFNAETNTEIKTDSSLNVAKGRLQILKDTTIDLEKMDIKNRKEYLSNDENWTDVAQMDDAKAIFNSKLSNVLSRYWRFCVDGGASSYYPQYTELQILGQRLSNDVANTLKDHHHHHHHHHH
modifications: Halo-Endo S2-His
isoelectric point: 5.5
